We go through 1 molecule from US6423539B1, “Adjuvant treatment by in vivo activation of dendritic cells” (The Board of Trustees of the Leland Stanford Junior …, priority 2000, dated 2002).

One assay has as its system circulating DC. To be noted: administration to mice in vivo; cited from earlier work.
In the next assay the test system is circulating blood DC. The assay can be described thus: Clinical study: expansion and phenotype of circulating blood DC after Flt3L administration. Type of assay: in vivo, human. How it is done: Clinical studies were also performed to determine the effect of the activation methods in human patients. It was shown that administration of FL to patients with advanced cancer mobilizes DC precursors into the blood, resulting in an increase of circulating DC of 20 fold on average.
An expansion of circulating blood DC was found following Flt3L administration. PBMC from patients with advanced cancer were assessed either before or following 10 days of Flt3L administration. DC were characterized phenotypically by expression of HLA DR without expression of lineage markers (CD3, 14, 19, 56).
DC were gated on their expression of HLA DR and lack of lineage markers CD3, 14, 19, 56. Flt3L expanded DC express intermediate levels of CD4 and CD54 more homogeneously by comparison with unmobilized DC. Flt3L expanded DC, however, lack surface expression of CD86 and CD40 compared with unmobilized DC. Results are from one patient and are representative of three patients studied.

B1: FL: Flt-3 ligand, growth factor that stimulates proliferation of hematopoietic progenitor cells; DC mobilization agent (protein, UniProt P49771 27-235, looked up)
Fms-related tyrosine kinase 3 …: TQDCSFQHSPISSDFAVKIRELSDYLLQDYPVTVASNLQDEELCGGLWRLVLAQRWMERLKTVAGSKMQGLLERVNTEIHFVTKCAFQPPPSCLRFVQTNISRLLQETSEQLVALKPWITRQNFSRCLELQCQPDSSTLPPPWSPRPLEATAPTAPQPPLLLLLLLPVGLLLLAAAWCLHWQRTRRRTPRPGEQVPPVPSPQDLLLVEH
As for B1, the “increase in number of circulating DC” value with circulating DC is listed as 10-30 fold. Besides, the “phenotype of expanded human DC” value with circulating blood DC (gated HLA DR positive, lineage negative, one patient, representative of three) is “immature phenotype”. Moreover, the “change in circulating blood DC precursors by flow cytometry” value in the assay on circulating blood DC (patients with advanced cancer, before vs. after 10 days of Flt3L) is reported as “significant increase”. Besides, the “increase of circulating DC” value in the assay with circulating blood DC (patients with advanced cancer, on average) came out at 20 fold.
